Literature values, collected in patent US20260159592A1, “COMPOSITIONS AND METHODS FOR TARGETING AND KILLING ALPHA-V BETA-3 -POSITIVE CANCER STEM CELLS (CSCS) AND TREATING DRUG RESISTANT AND METASTATIC CANCERS” (The Regents of the University of California, priority 2019, published 2026).

Columns and labels:
αvβ3 [1] = target: T1, αvβ3 (Homo sapiens, UniProt P05106+P06756); details: Clark et al., Am. J. Pathology 148:1407-1421 (1996)
αvβ3 [2] = target: T1, αvβ3; details: Brooks et al. Cell 79:1157-1164 (1994)
M21 cells = details: ligands such as vitronectin, fibrinogen and von Willebrand factor; Cheresh and Spiro
αvβ3 [3] = target: T1, αvβ3; details: Choi et al. (1994); Jones et al. (1996)

T1 sequence (P06756 31-889 limits assumed): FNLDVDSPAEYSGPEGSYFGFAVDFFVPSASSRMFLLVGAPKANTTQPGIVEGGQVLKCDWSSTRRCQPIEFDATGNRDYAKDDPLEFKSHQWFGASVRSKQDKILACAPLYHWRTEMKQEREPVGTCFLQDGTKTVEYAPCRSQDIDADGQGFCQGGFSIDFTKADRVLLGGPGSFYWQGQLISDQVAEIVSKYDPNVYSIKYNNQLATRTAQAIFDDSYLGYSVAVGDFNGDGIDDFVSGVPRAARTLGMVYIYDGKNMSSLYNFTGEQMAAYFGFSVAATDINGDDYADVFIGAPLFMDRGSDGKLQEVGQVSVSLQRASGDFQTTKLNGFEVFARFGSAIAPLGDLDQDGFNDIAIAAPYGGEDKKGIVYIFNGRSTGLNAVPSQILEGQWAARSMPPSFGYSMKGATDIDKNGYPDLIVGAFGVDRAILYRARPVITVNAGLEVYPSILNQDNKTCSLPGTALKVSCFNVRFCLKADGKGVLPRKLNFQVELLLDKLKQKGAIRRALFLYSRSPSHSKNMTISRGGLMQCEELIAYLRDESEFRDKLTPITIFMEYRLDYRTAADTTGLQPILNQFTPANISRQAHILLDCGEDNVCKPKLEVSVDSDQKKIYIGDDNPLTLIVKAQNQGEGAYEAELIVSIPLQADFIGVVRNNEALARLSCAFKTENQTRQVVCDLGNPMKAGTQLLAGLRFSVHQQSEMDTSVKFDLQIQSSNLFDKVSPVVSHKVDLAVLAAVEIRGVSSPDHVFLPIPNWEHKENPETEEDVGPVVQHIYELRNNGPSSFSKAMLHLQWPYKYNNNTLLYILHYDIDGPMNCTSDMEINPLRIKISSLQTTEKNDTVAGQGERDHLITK
T1 sequence (P06756 891-1048 limits assumed): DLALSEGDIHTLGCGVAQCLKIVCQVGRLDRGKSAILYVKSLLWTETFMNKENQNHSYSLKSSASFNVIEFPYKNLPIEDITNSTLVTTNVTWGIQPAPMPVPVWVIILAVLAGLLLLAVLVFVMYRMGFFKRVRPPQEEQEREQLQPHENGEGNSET
T1 sequence (P05106 27-788): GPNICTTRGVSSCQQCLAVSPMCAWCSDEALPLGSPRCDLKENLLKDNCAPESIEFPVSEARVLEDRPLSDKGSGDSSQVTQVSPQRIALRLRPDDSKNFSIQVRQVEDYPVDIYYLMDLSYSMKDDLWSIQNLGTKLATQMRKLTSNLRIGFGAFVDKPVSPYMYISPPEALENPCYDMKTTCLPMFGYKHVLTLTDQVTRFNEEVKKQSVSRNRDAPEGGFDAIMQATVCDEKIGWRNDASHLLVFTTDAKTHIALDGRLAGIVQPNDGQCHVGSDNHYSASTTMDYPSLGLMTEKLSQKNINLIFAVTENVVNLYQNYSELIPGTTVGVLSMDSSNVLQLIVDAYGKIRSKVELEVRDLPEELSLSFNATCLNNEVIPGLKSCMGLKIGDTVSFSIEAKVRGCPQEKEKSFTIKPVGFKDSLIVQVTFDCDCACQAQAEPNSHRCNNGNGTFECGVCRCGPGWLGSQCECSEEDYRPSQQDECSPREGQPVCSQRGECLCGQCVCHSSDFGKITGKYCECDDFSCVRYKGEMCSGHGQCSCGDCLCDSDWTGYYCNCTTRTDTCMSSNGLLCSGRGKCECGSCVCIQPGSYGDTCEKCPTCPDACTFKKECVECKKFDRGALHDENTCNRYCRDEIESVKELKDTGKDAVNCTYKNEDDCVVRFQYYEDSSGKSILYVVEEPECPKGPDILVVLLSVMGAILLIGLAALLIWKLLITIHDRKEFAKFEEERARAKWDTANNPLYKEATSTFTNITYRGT

- granulation tissue development in cutaneous wound (αvβ3 [1]): inhibitor
- tumor induced angiogenesis (αvβ3 [2]): inhibitor
- smooth muscle cell migration such as that occurring during restenosis (αvβ3 [3]): inhibitor
B1: LM609: murine monoclonal antibody specific for the integrin αvβ3 (antibody, V domains shown)
VH: EVQLVESGGGLVKPGRSLRLSCAASGFAFSSYDMSWVRQIPEKRLEWVAKVSSGGGSTYYLDTVQGRFTISRDNAKNTLYLQMSSLNSEDTAMYYCARHNYGSFAYWGQGTLVTVSA
VL: DIVLTQSPATLSVTPGDSVSLSCQASQSISNHLHWYQQKSHESPRLLIKYRSQSISGIPSRFSGSGSGTDFALSINSVETEDFGMYFCQQSGSWPHTFGGGTKLEIK
- attachment of M21 cells to αvβ ligands (M21 cells): inhibits
